Data as given in US20240002482A1 (BEIJING SOLOBIO GENETECHNOLOGY, published 2024).

Key:
[1] = target: T1, PcrV protein (Pseudomonas aeruginosa type III secretion system protein) (Pseudomonas aeruginosa); assay: ELISA on plate-coated synthetic PcrV, detection with goat anti-human Fc-AP and pNPP, OD410
T1 construct: The ELISA used 'synthetic PcrV' as plate coat; Biacore and BLI used 'PcrV protein' in solution; also called synthetic PcrV; Full-length PcrV
Description: STS7B15925, STS7B1H9 and STS7B112 were further optimized by introducing variants in the VH, VL, and/or Fc, giving rise to STS7B15925M, STS7B15921M, STS7B1H9M, STS7B1H924M, STS7B112M, and STS7B11201M. For the ELISA experiment, synthetic PcrV or PAO1 was used to coat the wells of a 96-well plate. On the following day, after washing with PBST, blocking with 200 μL PBS-milk for an hour, and another wash with PBST, the respective antibodies were added and incubated for an hour at 37° C. The plate was washed with 0.1% TBST 6 times before 100 μL of Goat-anti-human Fc antibody-AP (1:3000 in PBS) was added to each well and incubated for an hour. After washing with 0.1% TBST for 6 times, 50 μL of pNPP (p-nitrophenyl phosphate) was added to each well and color was developed for […] at 37 C. Subsequently, the colorimetric signals were read by a microplate reader at 410 nm. The ELISA results (OD410) were analyzed and the EC50 values were calculated.

[2] = target: T1, PcrV protein (Pseudomonas aeruginosa …); assay: SPR (BIACORE T200), 25 C; antibody captured on CM5 chip, serial dilutions of PcrV protein injected
Description: Binding affinity (Kd) of selected bispecific antibodies with respect to PcrV at 25° C. was determined using a real-time biosensor surface plasmon resonance assay (BIACORE™ T200). Briefly, the antibody was first captured on a CM5 chip to form an antibody surface. Serial dilutions of PcrV protein were injected over the antibody surface. Binding of antigen to antibody and dissociation of the bound complex were monitored in real time. Equilibrium dissociation constants (Kd) and dissociation rate constants were ascertained by performing kinetic analysis using BIA evaluation software.

Binder	binding result [1]	Kd [2]	koff [2]	kon [2]
anti-PcrV/anti-Psl bispecific antibody STS7B15925M (bispecific antibody, Chimeric heavy chain: VH-CH1-linker-scFv(anti-Psl)-linker-CH2-CH3; The Fab is from 7B1 (anti-PcrV); Optimized variant of STS7B15925) heavy: not shown light: DIQLTQSPSSLSASVGDRVTITCRASQGISSYLAWYQQKPGKAPKLLIYAASTLQSGVPSRFSGSGSGTDFTLTISSLQPEDFATYYCQQLSSYPLTFGGGTKVEIKRTVAAPSVFIFPPSDEQLKSGTASVVCLLNNFYPREAKVQWKVDNALQSGNSQESVTEQDSKDSTYSLSSTLTLSKADYEKHKVYACEVTHQGLSSPVTKSFNRGEC	binds			
anti-PcrV/anti-Psl bispecific antibody STS7B15921M (bispecific antibody, Chimeric heavy chain: 7B1 VH-CH1-linker-scFv(anti-Psl P5921)-linker-CH2-CH3) heavy: not shown light: DIQLTQSPSSLSASVGDRVTITCRASQGISSYLAWYQQKPGKAPKLLIYAASTLQSGVPSRFSGSGSGTDFTLTISSLQPEDFATYYCQQLSSYPLTFGGGTKVEIKRTVAAPSVFIFPPSDEQLKSGTASVVCLLNNFYPREAKVQWKVDNALQSGNSQESVTEQDSKDSTYSLSSTLTLSKADYEKHKVYACEVTHQGLSSPVTKSFNRGEC	binds			
anti-PcrV/anti-Psl bispecific antibody STS7B1H924M (bispecific antibody, Chimeric heavy chain: 7B1 VH-CH1-linker-scFv(anti-Psl 7H924)-linker-CH2-CH3) heavy: EVQLLESGGGLVQPGGSLRLSCTASGFTFSDNYMSWVRQAPGKGLDWVSVISESGGSTNYADSVKGRFSTSRDNSKSTLYLDMNSLRAEDTAIYYCAKGRFSTLSSHFFRAVYGMDVWGQGTAVTVSSASTKGPSVFPLAPSSKSTSGGTAALGCLVKDYFPEPVTVSWNSGALTSGVHTFPAVLQSSGLYSLSSVVTVPSSSLGTQTYICNVNHKPSNTKVDKKVEPKSCGKTGGGGSGGGGSQVQLVQSGAEVKKPGASVKVSCKASGDTSTIHSVHWVRQAPGQCLEWMGTIISSGTTTTYAQSFQDRVSMTIDRSTSTGYMELSSLRFEDTAVYYCTTDGTSWGQGTLVTVSSGGGGSGGGGSGGGGSGGGGSDIQLTQSPSSVSASVGDRVTIACRASQGISSWLAWYQQKPGKAPKLLIYHASTLESGVPSRFSGSGSGTDFTLTISSLQPEDFATYYCLQASSLPHTFGCGTKLEIKGGGGSGGGGSCPPCPAPELLGGPSVFLFPPKPKDTLYITREPEVTCVVVDVSHEDPEVKFNWYVDGVEVHNAKTKPREEQYNSTYRVVSVLTVLHQDWLNGKEYKCKVSNKALPAPIEKTISKAKGQPREPQVYTLPPSREEMTKNQVSLTCLVKGFYPSDIAVEWESNGQPENNYKTTPPVLDSDGSFFLYSKLTVDKSRWQQGNVFSCSVMHEALHNHYTQKSLSLSPGK light: DIQLTQSPSSLSASVGDRVTITCRASQGISSYLAWYQQKPGKAPKLLIYAASTLQSGVPSRFSGSGSGTDFTLTISSLQPEDFATYYCQQLSSYPLTFGGGTKVEIKRTVAAPSVFIFPPSDEQLKSGTASVVCLLNNFYPREAKVQWKVDNALQSGNSQESVTEQDSKDSTYSLSSTLTLSKADYEKHKVYACEVTHQGLSSPVTKSFNRGEC	binds			
anti-PcrV/anti-Psl bispecific antibody STS7B11201M (bispecific antibody) heavy: not shown light: DIQLTQSPSSLSASVGDRVTITCRASQGISSYLAWYQQKPGKAPKLLIYAASTLQSGVPSRFSGSGSGTDFTLTISSLQPEDFATYYCQQLSSYPLTFGGGTKVEIKRTVAAPSVFIFPPSDEQLKSGTASVVCLLNNFYPREAKVQWKVDNALQSGNSQESVTEQDSKDSTYSLSSTLTLSKADYEKHKVYACEVTHQGLSSPVTKSFNRGEC	binds			
anti-PcrV/anti-Psl bispecific antibody STS7B112M (bispecific antibody, Chimeric heavy chain: 7B1 VH-CH1-linker-scFv(anti-Psl 3F12)-linker-CH2-CH3) heavy: not shown light: DIQLTQSPSSLSASVGDRVTITCRASQGISSYLAWYQQKPGKAPKLLIYAASTLQSGVPSRFSGSGSGTDFTLTISSLQPEDFATYYCQQLSSYPLTFGGGTKVEIKRTVAAPSVFIFPPSDEQLKSGTASVVCLLNNFYPREAKVQWKVDNALQSGNSQESVTEQDSKDSTYSLSSTLTLSKADYEKHKVYACEVTHQGLSSPVTKSFNRGEC	binds			
anti-PcrV/anti-Psl bispecific antibody STS7B159S (bispecific antibody, also called STS7B1595) heavy: not shown light: DIQLTQSPSSLSASVGDRVTITCRASQGISSYLAWYQQKPGKAPKLLIYAASTLQSGVPSRFSGSGSGTDFTLTISSLQPEDFATYYCQQLSSYPLTFGGGTKVEIKRTVAAPSVFIFPPSDEQLKSGTASVVCLLNNFYPREAKVQWKVDNALQSGNSQESVTEQDSKDSTYSLSSTLTLSKADYEKHKVYACEVTHQGLSSPVTKSFNRGEC		0.179 nM	3.13e-05 s⁻¹	174000 M⁻¹ s⁻¹
anti-PcrV/anti-Psl bispecific antibody STS7B11201S (bispecific antibody, also called STS7B112015) heavy: not shown light: DIQLTQSPSSLSASVGDRVTITCRASQGISSYLAWYQQKPGKAPKLLIYAASTLQSGVPSRFSGSGSGTDFTLTISSLQPEDFATYYCQQLSSYPLTFGGGTKVEIKRTVAAPSVFIFPPSDEQLKSGTASVVCLLNNFYPREAKVQWKVDNALQSGNSQESVTEQDSKDSTYSLSSTLTLSKADYEKHKVYACEVTHQGLSSPVTKSFNRGEC		0.265 nM	4.52e-05 s⁻¹	170000 M⁻¹ s⁻¹
anti-PcrV antibody 7B1 (antibody, V domains shown, Monospecific antibody, optimized from the 13-42 lead) VH: EVQLLESGGGLVQPGGSLRLSCTASGFTFSDNYMSWVRQAPGKGLDWVSVISESGGSTNYADSVKGRFSTSRDNSKSTLYLDMNSLRAEDTAIYYCAKGRFSTLSSHFFRAVYGMDVWGQGTAVTVSS VL: DIQLTQSPSSLSASVGDRVTITCRASQGISSYLAWYQQKPGKAPKLLIYAASTLQSGVPSRFSGSGSGTDFTLTISSLQPEDFATYYCQQLSSYPLTFGGGTKVEIK		0.335 nM	4.82e-05 s⁻¹	144000 M⁻¹ s⁻¹
